This is an account of results in patent publication US20230042913A1 (COUNCIL OF THE QUEENSLAND INSTITUTE OF MEDICAL RESEARCH, published 2023).

The target of assay [1] is T1, mouse PD-1 transiently expressed by HEK-293 cells (mouse, UniProt Q02242 25-288).
T1 construct: whole, on cells; also called muPD-1
T1 sequence (looked up): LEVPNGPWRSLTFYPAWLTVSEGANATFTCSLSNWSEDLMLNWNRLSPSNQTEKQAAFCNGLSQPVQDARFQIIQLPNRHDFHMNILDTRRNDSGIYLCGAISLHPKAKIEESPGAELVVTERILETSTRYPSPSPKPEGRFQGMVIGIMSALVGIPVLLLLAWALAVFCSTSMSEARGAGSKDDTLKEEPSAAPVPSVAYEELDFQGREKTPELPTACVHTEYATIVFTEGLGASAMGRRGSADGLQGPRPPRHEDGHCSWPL
In words: flow cytometry competition: blocking of biotinylated PD-L1-Fc binding to muPD-1 on transfected HEK-293 cells. The protocol:
FIG. 31 is a graphical representation showing antibody competition of PD-1/PD-L1 binding. HEK-293 cells transiently transfected with mouse PD-1 were incubated with various concentrations of either anti-RANKL/PD-1 bispecific, anti-PD-1 mAb RMP1-14, rat IgG2a isotype control or human IgG1 isotype control for 30 minutes on ice. Secondly, cells were incubated with 2.5 μg of biotinylated recombinant murine PD-L1-Fc for an additional 30 minutes on ice. After two washes with FACS buffer (PBS+10% FCS), a final incubation with Streptavidin-APC for extra 30 minutes on ice. Samples and data were analyzed on a Fortessa 4 (BD Biosciences) flow cytometer and analyzed with FlowJo v10 software (Tree Star, Inc.). Representative FACS plots and summary data of inhibition of PD-L1-Fc binding of two independent experiments are shown.

The target of assay [2] is T1, mouse PD-1 transiently expressed by …. The experiment in a line: summary sentence of Example 25.
In assay [3] the target is T2, mouse RANKL transiently expressed by HEK-293 cells (mouse, UniProt O35235 1-316).
T2 construct: whole, on cells; also called muRANKL
T2 sequence (looked up): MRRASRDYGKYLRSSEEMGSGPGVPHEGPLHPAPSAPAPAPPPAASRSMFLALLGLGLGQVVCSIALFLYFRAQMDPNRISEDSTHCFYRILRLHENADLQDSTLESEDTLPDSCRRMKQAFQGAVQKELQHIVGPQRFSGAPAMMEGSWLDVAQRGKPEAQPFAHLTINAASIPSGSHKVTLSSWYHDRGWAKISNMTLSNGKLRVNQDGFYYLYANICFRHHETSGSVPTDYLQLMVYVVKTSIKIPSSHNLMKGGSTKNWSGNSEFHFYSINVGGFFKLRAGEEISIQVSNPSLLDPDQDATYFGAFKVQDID
The experiment in a line: flow cytometry competition: blocking of biotinylated RANK-Fc binding to muRANKL on transfected HEK-293 cells. The protocol: FIG. 29 is a graphical representation showing antibody competition of RANKL-RANK binding. HEK-293 cells transiently transfected with mouse RANKL were incubated with various concentrations of either anti-RANKL/PD-1 bispecific, anti-RANKL mAb IK22-5, rat IgG2a isotype control or human IgG1 isotype control for 30 minutes on ice. Secondly, cells were incubated with 2.5 μg of biotinylated recombinant murine RANK-Fc for an additional 30 minutes on ice. After two washes with FACS buffer (PBS+10% FCS), a final incubation with Streptavidin-APC for extra 30 minutes on ice. Samples and data were analyzed on a Fortessa 4 (BD Biosciences) flow cytometer and analyzed with FlowJo v10 software (Tree Star, Inc.). Representative FACS plots and summary data of inhibition of RANK-Fc binding of two independent experiments are shown.

B1: anti-PD-1 mAb RMP1-14 (rat IgG2a) (antibody, V domains shown)
VH: EVQLQESGPGLVKPSQSLSLTCSVTGYSITSSYRWNWIRKFPGNRLEWMGYINSAGISNYNPSLKRRISITRDTSKNQFFLQVNSVTTEDAATYYCARSDNMGTTPFTYWGQGTLVTVSS
VL: DIVMTQGTLPNPVPSGESVSITCRSSKSLLYSDGKTYLNWYLQRPGQSPQLLIYWMSTRASGVSDRFSGSGSGTDFTLKISGVEAEDVGIYYCQQGLEFPTFGGGTKLELK
notes: Rat IgG2a monoclonal antibody; also called anti-muPD-1 antibody (RMP1-14 rat IgG2a)
As for B1, in assay [1], the binding result was “binds”.

B2: bispecific anti-RANKL/PD-1 antibody (IK22-5/RMP1-14) (bispecific antibody)
heavy 1: QVQLKESGPGLVLSSATLSLTCTVSGFSLTNYDVSWIRHLPGKGLEWMGGVWLSGNTEYNSDFKSRLSISRDISKSQVFLKMSNLKIEDTGTYYCARDIGTTSDYWGQGVTVTVSSASTKGPSVFPLAPSSKSTSGGTAALGCLVKDYFPEPVTVSWNSGALTSGVHTFPAVLQSSGLYSLSSVVTVPSSSLGTQTYICNVNHKPSNTKVDKKVEPKSCDKTHTCPPCPAPELLGGPSVFLFPPKPKDTLMISRTPEVTCVVVAVSHEDPEVKFNWYVDGVEVHNAKTKPREEQYNSTYRVVSVLTVLHQDWLNGKEYKCKVSNKALPAPIEKTISKAKGQPREPQVYTLPPCRDELTKNQVSLWCLVKGFYPSDIAVEWESNGQPENNYKTTPPVLDSDGSFFLYSKLTVDKSRWQQGNVFSCSVLHEALHNHYTQKSLSLSPGK
light 1: DIQVTQSPSFLSASVGDRVTFNCKTSQNINKYLAWYQAKFGEGPKLLIFNADSLQSGIPPRFSGSGSGTDFTLTISGLQPEDFATYFCLQYNSWPTFGSGTKLEIKRTVAAPSVFIFPPSDEQLKSGTASVVCLLNNFYPREAKVQWKVDNALQSGNSQESVTEQDSKDSTYSLSSTLTLSKADYEKHKVYACEVTHQGLSSPVTKSFNRGEC
heavy 2: EVQLQESGPGLVKPSQSLSLTCSVTGYSITSSYRWNWIRKFPGNRLEWMGYINSAGISNYNPSLKRRISITRDTSKNQFFLQVNSVTTEDAATYYCARSDNMGTTPFTYWGQGTLVTVSSRTVAAPSVFIFPPSDEQLKSGTASVVCLLNNFYPREAKVQWKVDNALQSGNSQESVTEQDSKDSTYSLSSTLTLSKADYEKHKVYACEVTHQGLSSPVTKSFNRGECDKTHTCPPCPAPELLGGPSVFLFPPKPKDTLMISRTPEVTCVVVAVSHEDPEVKFNWYVDGVEVHNAKTKPREEQYNSTYRVVSVLTVLHQDWLNGKEYKCKVSNKALPAPIEKTISKAKGQPREPQVCTLPPSRDELTKNQVSLSCAVKGFYPSDIAVEWESNGQPENNYKTTPPVLDSDGSFFLVSKLTVDKSRWQQGNVFSCSVLHEALHNHYTQKSLSLSPGK
light 2: DIVMTQGTLPNPVPSGESVSITCRSSKSLLYSDGKTYLNWYLQRPGQSPQLLIYWMSTRASGVSDRFSGSGSGTDFTLKISGVEAEDVGIYYCQQGLEFPTFGGGTKLELKASTKGPSVFPLAPSSKSTSGGTAALGCLVKDYFPEPVTVSWNSGALTSGVHTFPAVLQSSGLYSLSSVVTVPSSSLGTQTYICNVNHKPSNTKVDKKVEPKSC
notes: also called RMP1-14 CH-CL X IK22/5 WT bispecific; anti-RANKL/PD-1 bispecific
For B2, in assay [2], the binding result was “binds”. This molecule gave an IC50 in assay [3] of 2.6 µg/mL.

B3: anti-RANKL mAb IK22-5 (rat IgG2a) (antibody, V domains shown)
VH: QVQLKESGPGLVLSSATLSLTCTVSGFSLTNYDVSWIRHLPGKGLEWMGGVWLSGNTEYNSDFKSRLSISRDISKSQVFLKMSNLKIEDTGTYYCARDIGTTSDYWGQGVTVTVSS
VL: DIQVTQSPSFLSASVGDRVTFNCKTSQNINKYLAWYQAKFGEGPKLLIFNADSLQSGIPPRFSGSGSGTDFTLTISGLQPEDFATYFCLQYNSWPTFGSGTKLEIK
notes: Rat IgG2a monoclonal antibody; also called anti-muRANKL antibody (IK22-5 rat IgG2a)
The molecule B3 came in with an IC50 in assay [3] of 1.1 µg/mL.
